For assay [1], the target named is T1, mouse FcγRIIb (mouse, UniProt P08101 30-207, limits assumed).
T1 construct: bought; also called mFcgRIIb; mFcgR IIb
T1 sequence (looked up): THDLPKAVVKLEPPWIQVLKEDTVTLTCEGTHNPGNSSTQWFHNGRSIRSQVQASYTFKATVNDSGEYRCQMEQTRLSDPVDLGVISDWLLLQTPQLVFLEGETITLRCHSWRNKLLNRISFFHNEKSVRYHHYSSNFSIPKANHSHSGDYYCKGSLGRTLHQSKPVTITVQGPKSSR
The assay can be described thus: SPR, antibody captured by Protein L, mouse FcγR as analyte, pH 7.4, 25 C. For orientation: SPR reads the build-up and loss of mass on a sensor chip optically.

The target of assay [2] is T2, mouse FcγRI (mouse, UniProt P26151 25-297).
T2 construct: bought; also called mFcgRI; mFcgR 1
T2 sequence (looked up): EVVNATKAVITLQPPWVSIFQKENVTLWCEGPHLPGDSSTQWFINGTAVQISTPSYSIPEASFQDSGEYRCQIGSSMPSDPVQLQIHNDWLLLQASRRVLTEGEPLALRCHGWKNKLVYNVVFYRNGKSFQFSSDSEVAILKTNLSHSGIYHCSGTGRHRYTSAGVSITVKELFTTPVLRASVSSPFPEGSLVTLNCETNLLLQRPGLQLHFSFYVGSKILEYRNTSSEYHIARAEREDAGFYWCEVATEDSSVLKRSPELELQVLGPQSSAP
The description is as above.

Assay [3] concerns the target T3, mouse FcγRIV (mouse, UniProt A0A0B4J1G0 21-203).
T3 construct: bought; also called mFcgRIV; mFcgR IV; the vendor's purification tag not given
T3 sequence: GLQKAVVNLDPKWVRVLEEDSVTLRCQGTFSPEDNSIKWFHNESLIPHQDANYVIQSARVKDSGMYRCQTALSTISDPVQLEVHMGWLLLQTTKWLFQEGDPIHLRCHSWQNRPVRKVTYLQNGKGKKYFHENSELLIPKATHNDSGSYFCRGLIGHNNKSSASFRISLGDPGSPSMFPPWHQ
Described as above.

Assay [4] concerns the target T4, mouse FcγRIII (mouse, UniProt P08508 31-215).
T4 construct: bought; also called mFcgRIII; mFcgR III
T4 sequence (looked up): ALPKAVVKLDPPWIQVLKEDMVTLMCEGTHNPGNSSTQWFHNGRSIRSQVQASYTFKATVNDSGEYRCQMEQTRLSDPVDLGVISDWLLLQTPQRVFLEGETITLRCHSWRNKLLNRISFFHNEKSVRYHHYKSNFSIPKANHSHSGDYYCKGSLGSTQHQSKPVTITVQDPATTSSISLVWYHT
The assay is described as above.

The target of assay [5] is T5, human FcRn (soluble human FcRn complexed with β2-microglobulin) (human, UniProt P61769 21-119, limits assumed).
T5 construct: also called hFcRn
As to the kind of experiment: SPR, antibody captured by Protein L, human FcRn as analyte, pH 7.0, 25 C.

Another assay deals with T6, human FcγRIIIa(V) (human, UniProt P08637 17-208, limits assumed).
T6 construct: also called hFcgRIIIa(V); allotype V158
As to the kind of experiment: SPR, antibody captured by Protein L, human FcγR as analyte, pH 7.4, 25 C.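 Also: biacore T100 or T200 with Protein L amine-coupled on a CM4 chip, FcγRs diluted in ACES saline with polysorbate 20, buffer-only injection as blank.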

A further assay has as its target T7, human FcγRIIa(H) (human, UniProt P12318 36-217).
T7 construct: also called hFcgRIIa(H); FcγRIIa type H
T7 sequence: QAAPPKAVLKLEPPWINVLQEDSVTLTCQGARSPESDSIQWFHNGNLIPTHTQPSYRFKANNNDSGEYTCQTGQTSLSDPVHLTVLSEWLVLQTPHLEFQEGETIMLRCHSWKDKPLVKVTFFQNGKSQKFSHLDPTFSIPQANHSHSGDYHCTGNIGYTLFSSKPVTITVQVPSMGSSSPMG
Described as above.

For a further assay, the target named is T8, human FcγRIa (human, UniProt P12314 16-292, limits assumed).
T8 construct: also called hFcgRIa; hFcgRI
Described as above.

Another assay concerns the target T9, human FcγRIIa(R) (human, UniProt P12318 36-217).
T9 construct: also called hFcgRIIa(R); FcγRIIa type R
T9 chain: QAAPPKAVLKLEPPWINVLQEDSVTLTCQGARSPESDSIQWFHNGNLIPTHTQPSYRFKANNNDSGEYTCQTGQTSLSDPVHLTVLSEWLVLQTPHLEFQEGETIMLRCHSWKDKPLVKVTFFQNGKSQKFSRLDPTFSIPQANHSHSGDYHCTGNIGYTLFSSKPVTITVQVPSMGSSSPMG
Described as above.

A further assay deals with T10, human FcγRIIb (human, UniProt P31994 43-217, limits assumed).
T10 construct: also called hFcgRIIb; FcγIIB
T10 sequence: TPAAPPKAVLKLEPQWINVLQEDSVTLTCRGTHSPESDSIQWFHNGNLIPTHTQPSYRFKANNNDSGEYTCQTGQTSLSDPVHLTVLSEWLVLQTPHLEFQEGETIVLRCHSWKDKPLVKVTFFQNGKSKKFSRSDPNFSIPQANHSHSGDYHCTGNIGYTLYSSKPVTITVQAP
Described as above.

Assay [6] concerns the target T1, mouse FcγRIIb. The assay can be described thus: SPR, antibody captured by Protein L, mouse FcγR as analyte, pH 7.4, 25 C. This is another data set of the same source.
The target of assay [7] is T2, mouse FcγRI. Described as above. This is another data set of the same source.
The target of assay [8] is T3, mouse FcγRIV. The assay is described as above. This is another data set of the same source.
The target of assay [9] is T4, mouse FcγRIII. The description is as above. This is another data set of the same source.

The values below come from patent US20200199241A1 (Chugai, published 2020).

Like-named read-outs stand apart in the source and are kept apart here.

T5 sequence (chain, as listed by the source limits assumed, chain 1 of 2): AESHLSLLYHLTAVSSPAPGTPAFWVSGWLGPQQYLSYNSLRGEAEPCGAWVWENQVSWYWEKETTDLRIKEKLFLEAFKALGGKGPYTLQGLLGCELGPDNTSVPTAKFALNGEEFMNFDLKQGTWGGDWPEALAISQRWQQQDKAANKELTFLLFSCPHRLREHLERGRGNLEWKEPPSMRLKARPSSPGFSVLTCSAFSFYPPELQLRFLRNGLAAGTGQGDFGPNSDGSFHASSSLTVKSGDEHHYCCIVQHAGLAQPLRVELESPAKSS
T5 sequence (P61769 21-119 limits assumed, chain 2 of 2): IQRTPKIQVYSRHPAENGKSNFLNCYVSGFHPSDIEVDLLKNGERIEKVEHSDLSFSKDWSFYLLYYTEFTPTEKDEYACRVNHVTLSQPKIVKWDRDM
T8 sequence (P12314 16-292 limits assumed): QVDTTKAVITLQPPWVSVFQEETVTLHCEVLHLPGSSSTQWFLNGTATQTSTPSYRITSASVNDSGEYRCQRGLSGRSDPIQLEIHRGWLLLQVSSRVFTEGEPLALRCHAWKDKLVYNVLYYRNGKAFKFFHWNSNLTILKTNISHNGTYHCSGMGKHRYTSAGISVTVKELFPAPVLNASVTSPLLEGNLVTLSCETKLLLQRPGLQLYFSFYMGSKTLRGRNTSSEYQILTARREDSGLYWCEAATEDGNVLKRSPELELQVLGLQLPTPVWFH
T6 sequence (P08637 other isoform, or with tags, fused parts or gaps limits assumed): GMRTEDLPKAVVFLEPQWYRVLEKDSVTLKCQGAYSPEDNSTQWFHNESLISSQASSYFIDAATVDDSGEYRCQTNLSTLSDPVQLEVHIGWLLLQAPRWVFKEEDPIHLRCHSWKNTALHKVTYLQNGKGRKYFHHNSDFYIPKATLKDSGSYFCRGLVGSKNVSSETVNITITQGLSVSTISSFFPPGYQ

B1: antibody with VH3-IgG1-F821 heavy chain and L(WT)-CK light chain (antibody)
heavy: QVQLQESGPGLVKPSETLSLTCAVSGHSISHDHAWSWVRQPPGEGLEWIGFISYSGITNYNPSLQGRVTISRDNSKNTLYLQMNSLRAEDTAVYYCARSLARTTAMDYWGEGTLVTVSSASTKGPSVFPLAPSSKSTSGGTAALGCLVKDYFPEPVTVSWNSGALTSGVHTFPAVLQSSGLYSLSSVVTVPSSSLGTQTYICNVNHKPSNTKVDKKVEPKSCDKTHTCPPCPAPELRGGPKVFLFPPKPKDTLYISRTPEVTCVVVDVSHEDPEVKFNWYVDGVEVHNAKTKPREEQYNSTYRVVSVLTVLHQDWLNGKEYKCKVSNKALPAPIEKTISKAKGQPREPQVYTLPPSRDELTKNQVSLTCLVKGFYPSDIAVEWESNGQPENNYKTTPPVLDSDGSFFLYSKLTVDKSRWQQGNVFSCSVMHEALHYHYTQKSLSLSP
light: not shown
notes: L235R/S239K/M252Y/N434Y; copies: 2 + 2
Consider B1, for which the “BINDING AMOUNT (RU)” value with mouse FcγRIIb [1] is -4.5 RU; with mouse FcγRI [2] it was 0.6 RU; in the assay with mouse FcγRIV [3], -3.8 RU; in the assay with mouse FcγRIII [4] it was -20.3 RU. For the same molecule, the Kd (commonly the equilibrium constant for the complex coming apart) in [5] is 310 nM.

B2: antibody with VH3-IgG1-F890 heavy chain and L(WT)-CK light chain (antibody)
heavy: QVQLQESGPGLVKPSETLSLTCAVSGHSISHDHAWSWVRQPPGEGLEWIGFISYSGITNYNPSLQGRVTISRDNSKNTLYLQMNSLRAEDTAVYYCARSLARTTAMDYWGEGTLVTVSSASTKGPSVFPLAPSSKSTSGGTAALGCLVKDYFPEPVTVSWNSGALTSGVHTFPAVLQSSGLYSLSSVVTVPSSSLGTQTYICNVNHKPSNTKVDKKVEPKSCDKTHTCPPCPAPELLGGPSVFLFPPKPKDTLYISRTPEVTCVVVDVSHEDPEVKFNWYVDGVEVHNAKTKPREEQYNSTYRVVSVLTVLHQDWLNGKEYKCKVSNKALPAPIEKTISKAKGQPREPQVYTLPPSRDELTKNQVSLTCLVKGFYPSDIAVEWESNGQPENNYKTTPPVLDSDGSFFLYSKLTVDKSRWQQGNVFSCSVMHEALHYHVTQKSLSLSP
light: not shown
notes: M252Y/N434Y/Y436V; copies: 2 + 2
For the molecule B2, the “BINDING AMOUNT (RU)” value was determined as 69.3 RU with mouse FcγRIIb [1]; 268 RU in the assay with mouse FcγRI [2]; 230 RU with mouse FcγRIV [3]; 284 RU with mouse FcγRIII [4]; 180 RU with human FcγRIIIa(V); 117 RU with human FcγRIIa(H). Moreover, the entries for the “BINDING AMOUNT (RU)” value with human FcγRIa, with human FcγRIIa(R) and with human FcγRIIb were 363 RU, 128 RU and 54.1 RU, respectively. This molecule yielded a Kd in assay [5] of 110 nM.

B3: antibody with VH3-IgG1-F939 heavy chain and L(WT)-CK light chain (antibody)
heavy: QVQLQESGPGLVKPSETLSLTCAVSGHSISHDHAWSWVRQPPGEGLEWIGFISYSGITNYNPSLQGRVTISRDNSKNTLYLQMNSLRAEDTAVYYCARSLARTTAMDYWGEGTLVTVSSASTKGPSVFPLAPSSKSTSGGTAALGCLVKDYFPEPVTVSWNSGALTSGVHTFPAVLQSSGLYSLSSVVTVPSSSLGTQTYICNVNHKPSNTKVDKKVEPKSCDKTHTCPPCPAPELRGGPKVFLFPPKPKDTLYISRTPEVTCVVVDVSHEDPEVKFNWYVDGVEVHNAKTKPREEQYNSTYRVVSVLTVLHQDWLNGKEYKCKVSNKALPAPIEKTISKAKGQPREPQVYTLPPSRDELTKNQVSLTCLVKGFYPSDIAVEWESNGQPENNYKTTPPVLDSDGSFFLYSKLTVDKSRWQQGNVFSCSVMHEALHYHVTQKSLSLSP
light: not shown
notes: L235R/S239K/M252Y/N434Y/Y436V; copies: 2 + 2
B3: the “BINDING AMOUNT (RU)” value is -6.3 RU with mouse FcγRIIb [1]; -2 RU in the assay with mouse FcγRI [2]; -7.3 RU in the assay with mouse FcγRIV [3]; -24.9 RU with mouse FcγRIII [4]; -0.75 RU in the assay with human FcγRIIIa(V); -0.9 RU with human FcγRIIa(H). Besides, the results for the “BINDING AMOUNT (RU)” value with human FcγRIa, in the assay with human FcγRIIa(R) and with human FcγRIIb were -2.37 RU, -0.8 RU and -0.2 RU, respectively. For the same molecule, in assay [5], the Kd was 150 nM.

B4: antibody with mPM1H-mIgG1 heavy chain and L(WT)-CK light chain (antibody)
heavy: DVQLQESGPVLVKPSQSLSLTCTVTGYSITSDHAWSWIRQFPGNKLEWMGYISYSGITTYNPSLKSRISITRDTSKNQFFLQLNSVTTGDTSTYYCARSLARTTAMDYWGQGTSVTVSSAKTTPPSVYPLAPGSAAQTNSMVTLGCLVKGYFPEPVTVTWNSGSLSSGVHTFPAVLQSDLYTLSSSVTVPSSTWPSETVTCNVAHPASSTKVDKKIVPRDCGCKPCICTVPEVSSVFIFPPKPKDVLTITLTPKVTCVVVDISKDDPEVQFSWFVDDVEVHTAQTQPREEQFNSTFRSVSELPIMHQDWLNGKEFKCRVNSAAFPAPIEKTISKTKGRPKAPQVYTIPPPKEQMAKDKVSLTCMITDFFPEDITVEWQWNGQPAENYKNTQPIMDTDGSYFVYSKLNVQKSNWEAGNTFTCSVLHEGLHNHHTEKSLSHSPGK
light: not shown
notes: mouse IgG1 heavy chain with natural mouse Fc region; also called mPM1-mIgG1; copies: 2 + 2
For B4, the “BINDING AMOUNT (RU)” value in the assay with mouse FcγRIIb [6] was 202 RU; in the assay with mouse FcγRI [7] it was -2 RU; with mouse FcγRIV [8] it was -3.5 RU; with mouse FcγRIII [9], 450 RU.

B5: antibody with mPM1H-mIgG1-mF14 heavy chain (antibody)
heavy: DVQLQESGPVLVKPSQSLSLTCTVTGYSITSDHAWSWIRQFPGNKLEWMGYISYSGITTYNPSLKSRISITRDTSKNQFFLQLNSVTTGDTSTYYCARSLARTTAMDYWGQGTSVTVSSAKTTPPSVYPLAPGSAAQTNSMVTLGCLVKGYFPEPVTVTWNSGSLSSGVHTFPAVLQSDLYTLSSSVTVPSSTWPSETVTCNVAHPASSTKVDKKIVPRDCGCKPCICTVPEVSSVFIFPPKPKDVLYITLEPKVTCVVVDISKDDPEVQFSWFVDDVEVHTAQTQPREEQFNSTFRSVSELPIMHQDWLNGKEFKCRVNSAAFPAPIEKTISKTKGRPKAPQVYTIPPPKEQMAKDKVSLTCMITDFFPEDITVEWQWNGQPAENYKNTQPIMDTDGSYFVYSKLNVQKSNWEAGNTFTCSVLHEGLKNHHTEKSLSHSPGK
light: not shown
notes: T252Y/T256E/H433K; also called mPM1-mIgG1-mF14; copies: 2 + 2
B5: the “BINDING AMOUNT (RU)” value with mouse FcγRIIb [6] is 184 RU; with mouse FcγRI [7] it was -3.7 RU; in the assay with mouse FcγRIV [8] it was -8 RU; with mouse FcγRIII [9], 447 RU.
